Assay results taken from patent publication US20260232732A1 (FUNDACI INSTITUT DE RECERCA CONTRA LA LEUC MIA JOSEP …, published 2026).
Where no end group is shown, it is not given here. The star is where a group is joined. Biotin = O=C1N[C@H]2[C@H](CS[C@H]2CCCCC(=O)*)N1

Assays:
[1] = target: T1, biotin-peptide TSSMEDYVNF (human); assay: ELISA biotin-peptide; scFv 5 ug/mL; repI
T1 peptide: Biotin-TSSMEDYVNF
Experimental: (§1) The peptides were synthesized naked or with a N-terminal Biotin modification with a purity of >98%. All four scFvs were verified by ELISA that can be detected with anti-His antibodies. ELISA was performed for scFv-peptide binding validation. Briefly, naked peptides were coated (50 μg/mL) in 0.58M carbonate-bicarbonate buffer pH9.5, 100 μL/well, 4° C. O/N. Then after blocking (3% BSA-PBS, 300 μL/well 37° C. 1.5 h) and washing (PBS+Tween-20 0.05% v/v (0.05% PBST), wells were incubated with each purified scFv antibody at concentration of 1 μg/mL in PBS at 37° C. 1 h. After washing (0.05% PBST), wells were incubated with secondary antibodies (goat anti-His IgG-HRP) in PBS, 37° C., 30 min. After washing, and incubation with TMB substrate, reactions were stopped with 2M HCl and reading was quantified at OD450.
(§2) ELISA with biotin-conjugated peptides (5 μg/mL) was performed very similar to described above with minor modifications.
(§3) A full curve ELISA was performed for each positive scFv/biotin-peptide pair in order to confirm previous results. Tables 15-17 show ELISA results of the dose-dependent full curve for each positive peptide with scFv “CCR9_HUM”, “Comp-2” and “Comp-3”, respectively.

[2] = target: T2, biotin-peptide SSMEDYVNFN (human); assay: ELISA biotin-peptide; scFv 5 ug/mL; repI
T2 peptide: Biotin-SSMEDYVNFN
Experimental: as §1, §2, §3

[3] = target: T1, biotin-peptide TSSMEDYVNF; assay: ELISA biotin-peptide; scFv 2.5 ug/mL; repI
Experimental: as §1, §2, §3

[4] = target: T2, biotin-peptide SSMEDYVNFN; assay: ELISA biotin-peptide; scFv 2.5 ug/mL; repI
Experimental: as §1, §2, §3

[5] = target: T3, biotin-peptide SMEDYVNFNF (human); assay: ELISA biotin-peptide; scFv 2.5 ug/mL; repI
T3 peptide: Biotin-SMEDYVNFNF
Experimental: as §1, §2, §3

[6] = target: T4, biotin-peptide MEDYVNFNFT (human); assay: ELISA biotin-peptide; scFv 2.5 ug/mL; repI
T4 peptide: Biotin-MEDYVNFNFT
Experimental: as §1, §2, §3

[7] = target: T1, biotin-peptide TSSMEDYVNF; assay: ELISA biotin-peptide; scFv 0.3125 ug/mL; repI
Experimental: as §1, §2, §3

[8] = target: T2, biotin-peptide SSMEDYVNFN; assay: ELISA biotin-peptide; scFv 0.3125 ug/mL; repI
Experimental: as §1, §2, §3

[9] = target: T3, biotin-peptide SMEDYVNFNF; assay: ELISA biotin-peptide; scFv 0.3125 ug/mL; repI
Experimental: as §1, §2, §3

[10] = target: T4, biotin-peptide MEDYVNFNFT; assay: ELISA biotin-peptide; scFv 0.3125 ug/mL; repI
Experimental: as §1, §2, §3

[11] = target: T5, naked peptide 1a MTPTDFTSPIPNMADDYGSESTSS (human); assay: ELISA, naked peptide coated
T5 construct: also called region 1-24
T5 peptide: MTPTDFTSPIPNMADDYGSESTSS
Experimental: as §1

[12] = target: T6, naked peptide 1b MEDYVNFNFTDFYCEKNNVRQFAS (human); assay: ELISA, naked peptide coated
T6 construct: also called region amino acids 25 to 48
T6 peptide: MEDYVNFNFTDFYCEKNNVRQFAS
Experimental: as §1

[13] = target: T7, Peptide 3-BSA (SSMEDYVNFN-C conjugated to BSA) (human); assay: ELISA; Ab 0.25 ug/mL; repI
T7 peptide: SSMEDYVNFNC(BSA)
Experimental: (§4) In brief, plates with each non-conjugated peptide (50 μg/mL) or BSA-conjugated peptide (5 μg/mL) were coated in 0.58M carbonate-bicarbonate buffer pH9.5, 100 μL/well, at 4° C. […] After washing, wells were incubated with the 3, 3′,5,5′-Tetramethylbenzidine (TMB) HRP substrate and reactions were stopped with 2M HCl and OD450 was recorded.

[14] = target: T8, Peptide 4-BSA (SMEDYVNFNF-C conjugated to BSA) (human); assay: ELISA; Ab 0.25 ug/mL; repI
T8 peptide: SMEDYVNFNFC(BSA)
Experimental: as §4

[15] = target: T9, Peptide 1, non-conjugated (MADDYGSEST-C) (human); assay: ELISA; Ab 0.25 ug/mL; repI
T9 construct: With the extra C-terminal Cys
T9 peptide: MADDYGSESTC
Experimental: as §4

[16] = target: T10, Peptide 2, non-conjugated (GSESTSSMED-C) (human); assay: ELISA; Ab 0.25 ug/mL; repI
T10 construct: With the extra C-terminal Cys
T10 peptide: GSESTSSMEDC
Experimental: as §4

[17] = target: T11, Peptide 3, non-conjugated (SSMEDYVNFN-C) (human); assay: ELISA; Ab 0.25 ug/mL; repI
T11 construct: With the extra C-terminal Cys
T11 peptide: SSMEDYVNFNC
Experimental: as §4

[18] = target: T12, Peptide 4, non-conjugated (SMEDYVNFNF-C) (human); assay: ELISA; Ab 0.25 ug/mL; repI
T12 construct: With the extra C-terminal Cys
T12 peptide: SMEDYVNFNFC
Experimental: as §4

[19] = target: T13, BSA (negative control coating) (bovine, UniProt P02769 25-607); assay: ELISA; Ab 0.25 ug/mL; repI
T13 construct: also called Negative control BSA
Experimental: as §4

[20] = target: T14, antigen peptide-BSA (immunisation peptide #1 MADDYGSESTSSMEDYVNFNF-C conjugated to BSA) (human, extra C-terminal Cys conjugated to BSA); assay: ELISA; Ab 0.25 ug/mL; repI
T14 construct: also called Positive control antigen peptide-BSA; MADDY peptide
T14 peptide: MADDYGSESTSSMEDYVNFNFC
Experimental: as §4

[21] = target: T15, Peptide 1-BSA (MADDYGSEST-C conjugated to BSA) (human); assay: ELISA; Ab 0.25 ug/mL; repI
T15 peptide: MADDYGSESTC(BSA)
Experimental: as §4

[22] = target: T16, Peptide 2-BSA (GSESTSSMED-C conjugated to BSA) (human); assay: ELISA; Ab 0.25 ug/mL; repI
T16 peptide: GSESTSSMEDC(BSA)
Experimental: as §4

[23] = target: T15, Peptide 1-BSA (MADDYGSEST-C conjugated …); assay: ELISA, BSA-conjugated peptide coated
Experimental: as §4

[24] = target: T16, Peptide 2-BSA (GSESTSSMED-C conjugated …); assay: ELISA, BSA-conjugated peptide coated
Experimental: as §4

T13 sequence (P02769 25-607 limits assumed): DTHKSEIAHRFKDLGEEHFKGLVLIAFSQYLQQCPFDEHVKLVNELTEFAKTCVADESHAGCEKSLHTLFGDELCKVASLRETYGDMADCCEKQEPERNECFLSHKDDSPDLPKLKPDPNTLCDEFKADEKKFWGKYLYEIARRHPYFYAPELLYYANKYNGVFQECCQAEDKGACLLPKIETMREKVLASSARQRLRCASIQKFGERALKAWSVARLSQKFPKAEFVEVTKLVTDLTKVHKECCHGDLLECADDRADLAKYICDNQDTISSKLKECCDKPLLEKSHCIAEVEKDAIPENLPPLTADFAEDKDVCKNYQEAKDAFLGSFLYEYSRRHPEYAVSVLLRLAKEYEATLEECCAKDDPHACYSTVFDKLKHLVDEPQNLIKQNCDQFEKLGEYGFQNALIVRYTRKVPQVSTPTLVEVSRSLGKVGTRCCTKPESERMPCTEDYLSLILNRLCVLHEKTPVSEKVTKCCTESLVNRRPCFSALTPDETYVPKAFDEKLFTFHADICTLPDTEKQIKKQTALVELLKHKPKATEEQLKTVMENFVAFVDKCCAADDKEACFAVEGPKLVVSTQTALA

B1: CCR9_HUM2 scFv (humanized anti-CCR9 scFv, SEQ ID NO: 17 with C-terminal 6xHis tag) (scFv)
scFv: QVQLVQSGAEVKKPGASVKVSCTASGYSFTDYIIYWVKQAHGQSLEWMGYIDPNNYNTRYSQKFQGKVTITVDKSSTSAYMELNSLTSDDTAVYYCARDVYWGQGTTVTVSSGGGGSGGGGSGGGGSGGGGSDVVMTQTPLSLSVTPGQPASISCRSSQSLVHSNGKTYLQWYLQKPGQSPKLLIYKVSNRFSGVPDRFSGSGSGTDFTLKISRVEAEDVGVYFCAQSTHVWTFGGGTKVEIKRAHHHHHH
**Q.** Which results are given for B1?
**A.** OD450 [1]: 1.47 OD; OD450 [2]: 1.86 OD; OD450 [3]: 1.42 OD; OD450 [4]: 1.81 OD; OD450 [5]: 1.76 OD; OD450 [6]: 1.66 OD; OD450 [7]: 0.46 OD; OD450 [8]: 1.69 OD; OD450 [9]: 1.63 OD; OD450 [10]: 1.47 OD

B2: Comparative antibody 1 (Comp-1) scFv, SEQ ID NO: 10 from WO2023/037125 A1, His-tagged (scFv)
scFv: QVQLKESGPGLVQPSQTLSLTCTVSGFSVASYDMHWVRLPPGKGLEWMGIIWANGNTHYNSGLKSRLSISRDTSKSQVFLKMNSLQTEDTAIYFCTRGGFAYWGQGTLVTVSSGGGGSGGGGSGGGGSGGGGSDVVMTQTPVSLSVSLGGQVSISCRSSQSLVHNNGNTYLSWYLQKPGQSPQLLIYKVSNRFSGVSDRFSGSGSGTDFTLKISRVEPDDLGVYYCGQGTQYPTFGGGTKLELKHHHHHH
**Q.** Does B2 bind [11]?
**A.** no binding

**Q.** Does B2 bind [12]?
**A.** no binding

B3: anti-CCR9 antibody clone 115 (murine, from hybridoma #115) (antibody, V domains shown)
VH: QVQLKQSGPELVKPGTSVRVSCTASGYSFTDYIIYWVKQSHGRSLEWIGYIDPNNYNTRYSQKFKGKATLTVDKSSTSAFMHLNSLTSDDSAVYYCARDVYWGQGTTLTVSS
VL: DVVMTQTPLSLTVSLGDQASISCRSSQSLVHSNGKTYLQWYLQKPGQSPKLLIYKVSNRFSGVPDRFSGSGSGTDFTLKISRVEAEDLGVYFCAQSTHVWTFGGGTKLEIKR
notes: Mouse IgG1
**Q.** B3 was tested. Which OD450 [13] did it give?
**A.** 1.95 OD

**Q.** And the OD450 [14]?
**A.** 2.46 OD

**Q.** And the OD450 [15]?
**A.** 0.02 OD

**Q.** And the OD450 [16]?
**A.** 0.02 OD

**Q.** And the OD450 [17]?
**A.** 1.89 OD

**Q.** What about the OD450 [18] of the same binder?
**A.** 2.09 OD

**Q.** And the OD450 [19]?
**A.** 0.01 OD

**Q.** And the OD450 [20]?
**A.** 2.29 OD

**Q.** What about the OD450 [21] of the same binder?
**A.** 0.02 OD

**Q.** And the OD450 [22]?
**A.** 0.02 OD

**Q.** Does B3 bind [23]?
**A.** no binding (tested: 1 ug/mL)

**Q.** Does B3 bind [24]?
**A.** no binding (tested: 1 ug/mL)
